Results on 2 substances are retold here after paper PMC6495647.

In one experiment the target is RecA (UniProt P0A7G6). Briefly: SPR; another set of experiments; calculated KD for MucB and RecA; details not told.
Experiment [1] has as its target β-subunit of DNA polymerase III holoenzyme of E. coli (E. coli) (UniProt P0A988). Briefly: SPR; BIAcore 2000, kinetic analysis at lower ligand densities (577 RU of immobilized β, 1036 RU of immobilized MucA’ on CM5); MucB in the mobile phase; BSA reference cell; apparent constants; data not shown.
Experiment [2] concerns the target MucA’ protein (plasmid pKM101 (host species not stated)). Briefly: SEC; Superdex 75 XK 16/60, 20 mM HEPES pH 7.4, 10% glycerol, 150 mM NaCl, 0.1 mM EDTA, 1 mM DTT; 1 ml of 2.5 mg/ml MucA’ applied; calibrated with protein standards.

Chain of β-subunit of DNA polymerase III holoenzyme of E. coli (E. coli) (P0A988 whole entry): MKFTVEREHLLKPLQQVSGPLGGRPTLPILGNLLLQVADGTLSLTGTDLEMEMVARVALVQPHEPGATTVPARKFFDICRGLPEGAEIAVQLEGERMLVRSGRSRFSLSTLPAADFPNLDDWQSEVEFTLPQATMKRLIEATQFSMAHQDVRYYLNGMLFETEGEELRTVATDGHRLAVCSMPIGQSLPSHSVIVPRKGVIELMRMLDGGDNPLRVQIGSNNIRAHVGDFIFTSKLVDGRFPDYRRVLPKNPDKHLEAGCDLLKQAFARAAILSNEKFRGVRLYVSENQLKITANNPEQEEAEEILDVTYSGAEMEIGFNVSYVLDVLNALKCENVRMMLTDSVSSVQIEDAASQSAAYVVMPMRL
Chain of RecA (P0A7G6 whole entry): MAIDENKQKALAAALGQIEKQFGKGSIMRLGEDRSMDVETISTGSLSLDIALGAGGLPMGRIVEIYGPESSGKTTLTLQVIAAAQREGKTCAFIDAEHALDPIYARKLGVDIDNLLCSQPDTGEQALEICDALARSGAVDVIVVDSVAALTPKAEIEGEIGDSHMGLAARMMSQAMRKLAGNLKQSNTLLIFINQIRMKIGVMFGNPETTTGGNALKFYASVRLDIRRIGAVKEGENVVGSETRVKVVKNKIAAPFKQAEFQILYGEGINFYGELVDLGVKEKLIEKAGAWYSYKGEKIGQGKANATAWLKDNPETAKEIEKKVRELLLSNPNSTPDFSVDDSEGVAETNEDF

As for “MucB protein (from UniProt P07375 1-420) (enzyme)”, the Kd with RecA is 2.41 nM. Moreover, in experiment [1], the Kd came to 0.31 nM, the amount bound (RU) is 349 RU, the koff came to 1.2e-05 s⁻¹ and the association rate constant (kon) turned out to be 38700 M⁻¹ s⁻¹.
In the case of MucA’ protein (natural protein), in experiment [2], the stoichiometry N stood at 2.
